Reference: patent publication US20210113678A1

What was measured:
[1] = biological target: HLA-A*0201 molecule on human T2 cells (human); assay: T2 cells expressing HLA-A*0201, anti-HLA-A2-PE, FACS; conditions: remark: other sources report otherwise
[2] = biological target: HLA-A*0201 molecule on human T2 cells (human); assay: T2 cells expressing HLA-A*0201, anti-HLA-A2-PE, FACS (Example 9)

Binder	Concentration of peptide that induces 20% of HLA-A2 expression [1] [µM]	In vitro binding affinity (relative to reference peptide HIV pol 589-597) [1]	mean relative fluorescence intensity at 1.5625 µM peptide (% of HIV peptide) [1]	mean relative fluorescence intensity at 3.125 µM peptide (% of HIV peptide) [1]	mean relative fluorescence intensity at 6.25 µM peptide (% of HIV peptide) [1]	mean relative fluorescence intensity at 25 µM peptide (% of HIV peptide) [1]	mean relative fluorescence intensity at 50 µM peptide (% of HIV peptide) [1]	mean relative fluorescence intensity at 100 µM peptide (% of HIV peptide) [1]	In vitro binding affinity (relative to reference peptide HIV pol 589-597) [2]
ILDEAYVMA [EGFR-H]	2.8	0.2	12	28.6	33.7	91.5	107	87.4	
IVGAETFYV (modifications not checked) [reference peptide HIV pol 589-597, P04585 1021-1029]									1
